± gives the standard deviation.
Assay: protein stability index of a GFP-peptide fusion (GPS, HEK-293T) (PSI 1-6); higher = more stable
Details: c terminus: a fixed tail appended
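Also: 24-mer peptide tiles fused after GFP, lentivirally expressed, FACS-sorted into six equal bins by GFP/DsRed ratio, decoded by Illumina sequencing, PSI is the read-weighted mean bin number.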

## KTIEDLRNKIIAATIENAQPILQI [KRT16]
treatment: DMSO
  protein stability index: 2.36 ± 0.25
treatment: MLN4924 1 uM, 8 h
  protein stability index: 2.33 ± 0.1

## EERALLLGRMGKHEQALFIYVHIL [VPS39]
treatment: DMSO
  protein stability index: 2.96 ± 0.41
treatment: MLN4924 1 uM, 8 h
  protein stability index: 2.68 ± 0.51

## DCQAGLNFADEDEAQAFRALVQEK [WAS]
treatment: DMSO
  protein stability index: 5.17 ± 0.22
treatment: MLN4924 1 uM, 8 h
  protein stability index: 5.08 ± 0.16

## LYWTKWYNNQSLGHGSHSFIYYEN [PKD2L1]
treatment: DMSO
  protein stability index: 2.53 ± 0.68
treatment: MLN4924 1 uM, 8 h
  protein stability index: 2.41 ± 0.47

## TCQKFLIQYNRRQLLILLQNCTDE [POP5]
treatment: DMSO
  protein stability index: 2.73 ± 0.31
treatment: MLN4924 1 uM, 8 h
  protein stability index: 2.36 ± 0.21

## YRSEDLLDVDTAAGGFQQRQGLKY [FBXO3]
treatment: DMSO
  protein stability index: 4.25 ± 0.18
treatment: MLN4924 1 uM, 8 h
  protein stability index: 4.18 ± 0.29

## NVINHFYCDLPQLFQLSCSSTQLN [OR3A1]
treatment: DMSO
  protein stability index: 3 ± 0.66
treatment: MLN4924 1 uM, 8 h
  protein stability index: 2.84 ± 0.34

## DSAQMQNGGPSTPPASPPADGSPP [ANKRD40]
treatment: DMSO
  protein stability index: 5.24 ± 0.49
treatment: MLN4924 1 uM, 8 h
  protein stability index: 5.23 ± 0.19

## HQCHKVIRGRYLVALGHAYHPEEF [PDLIM7]
treatment: DMSO
  protein stability index: 2.17 ± 0.29
treatment: MLN4924 1 uM, 8 h
  protein stability index: 2.2 ± 0.62

## GKAFPSGCSAVSEPASESVVGALP [TRAF3IP2]
treatment: DMSO
  protein stability index: 4.33 ± 0.14
treatment: MLN4924 1 uM, 8 h
  protein stability index: 4.59 ± 0.24

## TNTGPAGSSASTSPAPLDTCPSSS [DYRK1B]
treatment: DMSO
  protein stability index: 5.24 ± 0.17
treatment: MLN4924 1 uM, 8 h
  protein stability index: 5.31 ± 0.18

## VLENNLEAVARHMLIFSLALEEPE [DNAAF3]
treatment: DMSO
  protein stability index: 2.74 ± 1.1
treatment: MLN4924 1 uM, 8 h
  protein stability index: 2.52 ± 0.37

## EVSHPFLIRLFWTWHDERFLYMLM [PRKX]
treatment: DMSO
  protein stability index: 2.24 ± 0.55
treatment: MLN4924 1 uM, 8 h
  protein stability index: 2.14 ± 0.19

## SGLDDFFLDIDTSAVEKEPARAPP [SERTAD3]
treatment: DMSO
  protein stability index: 4.71 ± 0.24
treatment: MLN4924 1 uM, 8 h
  protein stability index: 4.75 ± 0.31

## EEVSTLNAQIPELKSDLEKASALN [CD207]
treatment: DMSO
  protein stability index: 5.08 ± 0.19
treatment: MLN4924 1 uM, 8 h
  protein stability index: 5.24 ± 0.17

## SESETSTMAAKKNRQSSDKQNGRV [C18orf25]
treatment: DMSO
  protein stability index: 5.35 ± 0.17
treatment: MLN4924 1 uM, 8 h
  protein stability index: 5.16 ± 0.17

## LPELKANPFKERICRVFSTSPAKD [CIB1]
treatment: DMSO
  protein stability index: 3.46 ± 0.08
treatment: MLN4924 1 uM, 8 h
  protein stability index: 3.58 ± 0.2

## CGSFQVTTGLQVPSAVRCLQKRGS [FSD1]
treatment: DMSO
  protein stability index: 2.96 ± 0.2
treatment: MLN4924 1 uM, 8 h
  protein stability index: 2.8 ± 0.17

## QKVATLEKRNRQLRERVKKVKRSL [CCDC3]
treatment: DMSO
  protein stability index: 4.08 ± 0.2
treatment: MLN4924 1 uM, 8 h
  protein stability index: 4.89 ± 0.11

## EFDSPHEDIVFETDHILESLYRDI [STX11]
treatment: DMSO
  protein stability index: 3.59 ± 0.38
treatment: MLN4924 1 uM, 8 h
  protein stability index: 3.58 ± 0.25

## TGEIMHALKMTWHVHCFTCAACKT [PDLIM7]
treatment: DMSO
  protein stability index: 2.69 ± 0.33
treatment: MLN4924 1 uM, 8 h
  protein stability index: 2.27 ± 0.25

## PNTLYEGGYFKAHIKFPIDYPYSP [UBE2R2]
treatment: DMSO
  protein stability index: 2.26 ± 0.13
treatment: MLN4924 1 uM, 8 h
  protein stability index: 2.21 ± 0.27

## PEDRPSLDDIIRHDFFLQGFTPDR [PLK2]
treatment: DMSO
  protein stability index: 4.35 ± 0.12
treatment: MLN4924 1 uM, 8 h
  protein stability index: 4.27 ± 0.29

## LRGKECCINRFQQVESRWGYSGTS [BTBD1]
treatment: DMSO
  protein stability index: 2.47 ± 0.18
treatment: MLN4924 1 uM, 8 h
  protein stability index: 2.72 ± 0.16

## EEAWVKIENLAKANPQYTVYSQAS [PPP2R5C]
treatment: DMSO
  protein stability index: 3.29 ± 0.16
treatment: MLN4924 1 uM, 8 h
  protein stability index: 3.48 ± 0.18

## IYAYDAKIEIQTLTGLFKGDKCHS [CASP6]
treatment: DMSO
  protein stability index: 2.14 ± 0.7
treatment: MLN4924 1 uM, 8 h
  protein stability index: 2.26 ± 0.23

## ATYRSLLEGQDAKMIGFPSSAGSV [KRT13]
treatment: DMSO
  protein stability index: 3.22 ± 0.4
treatment: MLN4924 1 uM, 8 h
  protein stability index: 3.54 ± 0.24

## LVAGIGFYQHLLLYIQSHYQLELQ [SMG5]
treatment: DMSO
  protein stability index: 2.99 ± 0.5
treatment: MLN4924 1 uM, 8 h
  protein stability index: 3.11 ± 0.43

## TVYKARDPHSGHFVALKSVRVPNG [CDK4]
treatment: DMSO
  protein stability index: 2.31 ± 0.48
treatment: MLN4924 1 uM, 8 h
  protein stability index: 2.68 ± 0.49

## EKTFWKEEKSFWEMEKSFREEEKT [CCDC70]
treatment: DMSO
  protein stability index: 4.62 ± 0.23
treatment: MLN4924 1 uM, 8 h
  protein stability index: 4.82 ± 0.26

## FYPALWPQLRICLRVSPAEQPRLE [FBXO33]
treatment: DMSO
  protein stability index: 2.39 ± 0.46
treatment: MLN4924 1 uM, 8 h
  protein stability index: 2.3 ± 0.27

## SYSRLCRESGAEPQEAVLQQLHQL [LRRC45]
treatment: DMSO
  protein stability index: 3.71 ± 0.29
treatment: MLN4924 1 uM, 8 h
  protein stability index: 3.71 ± 0.19

## RVRGRVGTIRPVRCPSSSLHMSQR [C22orf15]
treatment: DMSO
  protein stability index: 3.14 ± 0.28
treatment: MLN4924 1 uM, 8 h
  protein stability index: 3.57 ± 0.19

## DPNTAAGWLSVSDDLTSVTNHGYR [TRIM35]
treatment: DMSO
  protein stability index: 4.32 ± 0.15
treatment: MLN4924 1 uM, 8 h
  protein stability index: 4.31 ± 0.13

## VGIFHLMQIAVPCAFLLLRLLVGL [TMEM175]
treatment: DMSO
  protein stability index: 2.81 ± 0.45
treatment: MLN4924 1 uM, 8 h
  protein stability index: 2.82 ± 0.47

## TTSETQKSVQCGTWTKHAEGGIFT [NETO1]
treatment: DMSO
  protein stability index: 3.59 ± 0.085
treatment: MLN4924 1 uM, 8 h
  protein stability index: 3.62 ± 0.23

## RVSAMRDYRGPDCRYLNFTKGEEI [MIA2]
treatment: DMSO
  protein stability index: 3.02 ± 0.58
treatment: MLN4924 1 uM, 8 h
  protein stability index: 3.26 ± 0.49

## GFLPWLMNEVEKTMEYSMVGRTVL [RSPH3]
treatment: DMSO
  protein stability index: 2.8 ± 0.54
treatment: MLN4924 1 uM, 8 h
  protein stability index: 2.94 ± 0.41

## WELVVLGKLKWNLAAVTPHDFIEH [CCND2]
treatment: DMSO
  protein stability index: 2.7 ± 0.71
treatment: MLN4924 1 uM, 8 h
  protein stability index: 2.62 ± 0.39

## TSRAPSTYTYTSRPRALPCQRSRY [RSPH3]
treatment: DMSO
  protein stability index: 3.65 ± 0.15
treatment: MLN4924 1 uM, 8 h
  protein stability index: 3.84 ± 0.31

## NFSNYYVAHPPVTYSQPYPTWLPC [TENT5C]
treatment: DMSO
  protein stability index: 2.46 ± 0.5
treatment: MLN4924 1 uM, 8 h
  protein stability index: 2.17 ± 0.098

## QILLEWCRSKTLGYQHVDLQNFSS [SMTNL2]
treatment: DMSO
  protein stability index: 2.72 ± 0.56
treatment: MLN4924 1 uM, 8 h
  protein stability index: 2.49 ± 0.43

## RRLRGEQRGQEPLGPGALHFDLRD [TCF25]
treatment: DMSO
  protein stability index: 4.24 ± 0.22
treatment: MLN4924 1 uM, 8 h
  protein stability index: 4.43 ± 0.21

## FLQYYYQSGCLYRLRALGERHTMD [TMEM120A]
treatment: DMSO
  protein stability index: 2.46 ± 0.47
treatment: MLN4924 1 uM, 8 h
  protein stability index: 2.35 ± 0.38

## PCWKITLFVIVPVLGPLVALIICY [MOG]
treatment: DMSO
  protein stability index: 2.87 ± 0.98
treatment: MLN4924 1 uM, 8 h
  protein stability index: 2.88 ± 1.2
